{"source": "the DeepSol protein solubility set"}
{"assay": "soluble on expression in E. coli; label from the status in PepcDB or PDB records"}
{"sequence": "MLDANKLQQAVDQAYTQFHSLNGGQNADYIPFLANVPGQLAAVAIVTCDGNVYSAGDSDYRFALESISKVCTLALALEDVGPQAVQDKIGADPTGLPFNSVIALELHGGKPLSPLVNAGAIATTSLINAENVEQRWQRILHIQQQLAGEQVALSDEVNQSEQTTNFHNRAIAWLLYSAGYLYCDAMEACDVYTRQCSTLLNTIELATLGATLAAGGVNPLTHKRVLQADNVPYILAEMMMEGLYGRSGDWAYRVGLPGKSGVGGGILAVVPGVMGIAAFSPPLDEDGNSVRGQKMVASVAKQLGYNVFKGLEHHHHHH", "soluble on expression in E. coli": "not soluble"}
{"sequence": "MLDLFADAEPWQEPLAAGAVILRRFAFNAAEQLIRDINDVASQSPFRQMVAPGGYTMSVAMTNCGHLGWTTHRQGYLYSPIDPQTNKPWPAMPQSFHDLCQRAATAAGYPDFQPDACLINRYAPGAKLSLHQDKDEPDLRAPIVSVSLGLPAIFQFGGLKRNDPLKRLLLEHGDVVVWGGESRLFYHGIQPLKAGFHPLTTDCRYNLTFRQAGKKE", "soluble on expression in E. coli": "not soluble"}
{"sequence": "MLDPFSEKAKELLKEFGSMNEFLQAIPSLVDIEEVMNRLKFAKESEISEDILNIEDIRDLASFYAQIGALAYSPYGLELELVKKANLRIYTERIRRRRKIRSDEIGIEVKIAVEFPENDIKTLEKVYGGLPEYIVSLREFLDLVPDEKLSSYYVYDGNVYLRKDDLLKVWSKAFERNVEKAVNIIYEIRDELPEFYRRLAGEIRSFAEKEFSDKFREVQAGELKHHLFPPCVKNALRGVPQGMRNYAITVLLTSFLSYARICPNPPRRNVKIRDCIKDMRVITEEILPIIIEAGNRCSPPLFEDQPNEIKNIWYHLGFGYTANPTLEDSGNSTWYFPPNCDKIKANAPQLCTPDKHCRYIRNPLTYYLRRLYLEEKRRAKHADEGSDKGGKERILQLEHHHHHH", "soluble on expression in E. coli": "not soluble"}
{"sequence": "MLDRFATKQTQEKLKIGVVGVFAIGCLFPLLSDFKRSYPHIDLHISTHNNRVDPAAEGLDYTIRYGGGAWHDTDAQYLCSALMSPLCSPTLASQIQTPADILKFPLLRSYRRDEWALWMQTVGEAPPSPTHNVMVFDSAVTMLEAAQAGMGVAIAPVRMFTHLLSSERIVQPFLTQIDLGSFWITRLQSRPETPAMREFSRWLTGVLHKTSGSHHHHHH", "soluble on expression in E. coli": "soluble"}
{"sequence": "MLEEVERWLDARSWPAADRPVQHLLSAKHATGQSVSVVLPALDEEATVGDIVSVIRRELVLGVPLVDEIVVVDSGSSDRTSEVAAAAGARVVHRDAILPRIPAVPGKGEVLWRSLLVTGGDIVCFVDADLREFSADFVSGIVGPLLTDPDVHLVKAMYDRPLAGAAGQGGRVTELMARPLLNMHWPQLAGFVQPLGGEYAARRSLLERLPFPVGYGVELGMLVDALHLVGLDALAQVDVGVRVHRHQDGRALGRMAAAIYRTAQLRLARGHLVRPALTQFERGVDGFEPRTYAVDTEERPPMTEIAEYAARKVALEHHHHHH", "soluble on expression in E. coli": "soluble"}
{"sequence": "MLEHRRLFPGRRYDSRVYRSCASPMPYLLEEKLRGTAMEQRTPPSEAVISGPATPGLAEGKISAYLLDLATRTLRPPTFPPLSDSTVTAKDTVCLVGGPELAWLAVGMTPFRNITSVTLQQGELKSCSLQESMEWMRLAHLLKAAPEQVNGDGGEALALQRRLAAVRTDLVLLDLLANGHPTTGLPQVLATPFADVLDAYVDMEKEQHSAAAPSAPQNVGRLRSVLFDEEPVTGVHLEQPSLRLRLVSLQQLLVRIVRALSGAHVGLPAGNRPTPHAATLLEMTLQTHGLLCGGGVPSQAWSPTPDPADASSGGSSTAALNGTVLLDKFPRLSAEMLLQHVTYLLSNEAKQRTANAADGAGEGSDSIYLSPQRTRHFGLTGVETLLLSATQAEQVNQVLPLYVRGHTLPDEVASDITQTRNIHEAVRKTQRVLSRVLQQASQELASQSGSGTAAVDDAGHNGPHPALAHLPSHLFVRTAGARGPPPGWEYYGVHLGIKAEAMNVRYNLNASDTATLHLIDSSGSSNSGGVTATAGSEVGAESTRSGMPG", "soluble on expression in E. coli": "not soluble"}
{"sequence": "MLEIRHLKTLHALREADSLVDAAERLHLTQSALSHQFKELEERMGMPLFVRKTKPVRFTSAGLRLLQLADSMLPQLRSAERDIARLAGGTAGRLHMAIECHSCFQWLMPTIDQFRDAWPEVELDLSSGFSFAPLPALARGDLDLVVTSDPLELPGITYVPLFTYEAMLAVANQHALASKPYIVPEDLLPETLITYPVERDRLDIFTRFLEPADIEPAQVRTSELTVMMMQLVASGRGVCGMPHWALHEYSSRGYVKAKRLGEKGLFATLYAGIRADMLDAPYMRDFLLTAKDTSFSTLDGVSVVR", "soluble on expression in E. coli": "not soluble"}
{"sequence": "MLELDTRQIRMGQRAADKAEALRLLGAALVADGLAAPGYAEGLKAREAQGSTYLGQGIAIPHGTPDTRELVFSTGVRLLQFPEGVDWGDGQQVYLAIGIAAKSDEHLQLLQLLTRALGEADLGPALSAAASAEEVLGLLQGAPQELALDAQLVGLGQNAEDLDELAWLGARLLKKAGCVENGFAAVLQQTEPLPLGDGLCWLHSEQLVKRPGLAFVTPAQPLQHQGQLVTGLFCLASLGEAHQALLERLCDLLLEGRGAELVRATSSRSVLAALGGELPPDWPSARAVLANPHGLHARPAQALAQLAKGFAGEIRVRLADSEAAPVSAKSLSKLLALGARRGQTLEFSAEPAIAEDALPALLAAVREGLGEEVEALAEEALPDAVGEAEEDARPAPLRAGERLQAIAASPGIASGPAHVQVAQRFEFQPRGESPAHERERLLRAKRAVDEEIVGLVERSTVKAIREIFVTHREMLDDPELAEQVQLRLNRGESAEAAWSRVVEDSAAQQEALHDALLAERAADLRDLGRRVLARLCGVEAPREPEQPYILVMDEVGPSDVARLDAQRVAGILTARGGATSHSAIIARALGIPALVGAGAAVLGLEPGTALLLDGEHGWLQVAPSTEQLQQAAAERDARQQRQARADAQRLEPARTRDGHAVEVCANLGDTAGAARAVELGAEGVGLLRTEFVFMNNARAPDLATQEAEYRRVLDALDGRPLVARTLDVGGDKPLPYWPIPHEENPYLGLRGIRLTLQRPQILETQLRALFRAAGERPLRVMFPMVGSLDEWRQARDLALRLREEIPLADLQLGIMVEVPSAALLAPVLAREVDFFSVGTNDLTQYTLAIDRGHPSLSAQADGLHPAVLQLIDMTVRAAHAEGKWVGVCGELAADPLALPLLVGLGVDELSVSARSIALVKAGVRELQLVAARGLARKALGLASAAEVRA", "soluble on expression in E. coli": "not soluble"}
{"sequence": "MLEQPYLDLAKKVLDEGHFKPDITHTGTYSIFGHQMRFDLSKGFPLLTTKKVPFGLIKSELLWFLHGDTNIRFLLQHRNHIWDEWAFEKWVKSDEYHGPDMTDFGHRSQKDPEFAAVYHEEMAKFDDRVLHDDAFAAKYGDLGLVYGSQWRAWHTSKGDTIDQLGDVIEQIKTHPYSRRLIVSAWNPEDVPTMALPPCHTLYQFYVNDGKLSLQLYQRSADIFLGVPFNIASYALLTHLVAHECGLEVGEFIHTFGDAHLYVNHLDQIKEQLSRTPRPAPTLQLNPDKHDIFDFDMKDIKLLNYDPYPAIKAPVAV", "soluble on expression in E. coli": "soluble"}
{"sequence": "MLERRDKEITDLKRRVANMVVVGKISHVDHKNARYRVKTGNLVSDWIPDTQARAGKTRSYEGRDVGEQVVVVSSSGDLSQGVIVGSIHTDANQAADKGNLHKTLYPDGTTIEYDDEQNSYALHLTSGGKFSLTISDGVSIKGDGKKLELQAAEGIKIISQGDLSLSAEKNIALKAGGSVSLHSDDGIALHSSEGVSIHSSDLKHNGTNIGNSHVHGGVSPGGSMTGGPN", "soluble on expression in E. coli": "soluble"}
{"sequence": "MLERTQVFVDTSYLLASFYNSWEIGARAQLEIDLPEVVATLGNMIHNQLGQPVHRQFWYDGIPESGPHRYQRALRTCDGVQLRAGQLIEWGERRTQKAVDTRLVADMVLAGVRREFTDIVLVSGDADMIPGVQEAVNAGVRVHLYGFGWDSMSSALRHACDSTTILDPREDFSDCMQLEILEGPLPPVVRNPDEEGEEGEFPAAAAEATAAAAEAAADTTVTTDATDNEATPPVPTPEQVAEKSQREAPAAPIPCPQRPGEPALSEEDCMAEVPAKMPKPVAPKPGAHLPAETPAPAPTATPAPTPSSRTVRVTSTVEESLEVTVSNSAEPNVEAEEADTPATPRPAPNPSMMAPRRKLRSRYVPLPNEVWASAGYQTPFDVGQQYALWWFDNAATPEQRDSAHLLSGGGLPPEIDRPLLQFACETLHEYTLTEAQRVGLRDGFHSGIRGVLINNQNS", "soluble on expression in E. coli": "not soluble"}
{"sequence": "MLFFETDATLALWGEAVLAATWAEFPQLARNQLALTWIVYDDPVPVNTGGAIAPQSFWSLPIRGFHYRGDEAIYPASVVKLFYLVAALEWLQQGMIQPSAELDRALRDMIVDSSNDATGYIVDLLSGTTSGPELGDGPFKTWQFQRNIVNRYYQSLMWPELQPINVNQKTWGDGPYGRERAFYGPEFENRNKLTTNATARLLHAIAGGVAVSPSASQRMLNLLNRPFDPRSLAEDPENQVTGFLGQDLPQGSQLWSKAGWMSRVRHDAAYLEIPGLPPHLLVAFTEGKEHANNEAILPFIAQQVRQQLQPALEHHHHHH", "soluble on expression in E. coli": "soluble"}
{"sequence": "MLFHDIHDRAVKALPQILDRLIADGYQFAGWNGRDFSVARAPSATAAATVTTGYAKSWAIVIGIDDYARWPKLEYAANDAQAIANTLTGPLGFPSSQVIVLKNAEATRNNILAAFHDRLGDGRAQTNDRVFVFFAGHGATRRLASGRDLGYIIPVDSDPEHLANDAIAMSDLQNIAESLQAKHVLFVMDACYSGLGLTRGGPSSSAYLRENARRIARQMLTAGGADQQVADSGPNGHSVFTWVVLQALAGKGDLNGDGLITGTELAAYVAPAVSAVSAQTPAFGSLPGSQGGEFVFQVPSGEEFLTADTAQLSAAAIALNGRVDAVRPAAVSLEHHHHHH", "soluble on expression in E. coli": "soluble"}
{"sequence": "MLFHRKIKVPDCVFKAEKRVLHVSDTPVSFYRTFDEILNLIKPDIIIHTGDLADDIKLERKPWLKKEYENALIKFKNIIRGRIVYLVPGNEDDKEIIREILGRDVILVNPGTIIEIYGRTFALGHKPEDVKGKEAEFKLYGHDPKSLFPFNGIHAIHIILFPEWKVVKIRYPSWVNYDRGYRIFRGLLEHHHHHH", "soluble on expression in E. coli": "not soluble"}
{"sequence": "MLFISSDNQKEKRGMAGNKKINRREEILQALAEMLESNEGASRITTAKLAKQVGVSEAALYRHFPSKARMFEGLIEFIEESLMSRINRIFDEEKDTLNRIRLVMQLLLAFAERNPGLTRILSGHALMFENERLRDRINQLFERIETSLRQILRERKLREGKSFPVDENILAAQLLGQVEGSLNRFVRSDFKYLPTANFDEYWALLSAQIK", "soluble on expression in E. coli": "soluble"}
{"sequence": "MLFLDSVAMKEKPEGREEYPFSVPAMRHLERLEFKTPITFFAGNNGSGKSTLLEGLAAGMTAYAIGNHGDVKGDLYLQHAETVAKAFYFARKKYPKIRMFLRAEDVLGYIRRQNENALDDFRWEREKALKKGEDFPEETPEIFRGIVRNNSLDRRSHGEGFLDIMHRRLHGAGLYFLDEPESPLSPQKQLELAAIIRQAADSGGQLIIATHSPVLLAIPEATIYYFDEDGITERLYDELENIAFLRRFLDRPSKYLDDLEHHHHHH", "soluble on expression in E. coli": "soluble"}
{"sequence": "MLIDSFEDLDGVIQEIKFRLTRAPMEMGRERECCVLSTSPGCRRAASFPFVGDSSIIQASSLKVRSKSESEALNKMRLTQMNLETVRKRLSESTIKEKDEGSDYQSHSSSSSECEVDDLELFCAGPLELKEEEKLRKSVRFADDCGHELYMVRVATEPSNCPPKLSPSVLRRYRGESFEEEEMTTREPAPVWNLMFKQPAADYVRFRENMETNKVSLENVILNNEAYKVMGTIKVGNIAFEKSVFVRYTMNGWISYMDKAAIYQPSTSKIQDTFKFDLDLPSSVEKIHQIEFCICFKANGTEYWDSNSGTNYVLHCEQQQHPAVPQQRRASLFGSSKYLDRDDAYKLDYNDWGKFASWKALSTDGPYW", "soluble on expression in E. coli": "soluble"}
